Data taken from patent publication US20260027179A1, “ANTI-SYNUCLEINOPATHY PEPTIDE AND METHODS TO TREAT NEURODEGENERATIVE DISEASES” (University of British Columbia, priority 2021, published 2026).

How the values were obtained:
HSP90 = HSP90 level in cortical cultures, immunoblot; type: cell-based, rat; conditions: 50 μM, 24 hrs
Protocol: (§1) Primary rat neuron cultures were prepared from embryos of pregnant Sprague-Dawley rats (E18). The experimental protocol was approved by the University of British Columbia Animal Care Committee. Briefly, the cortical tissue or ventral midbrain tissue was isolated into ice cold HBSS (Invitrogen, 14170-112) and then digested with 0.25% trypsin-EDTA at 37° C. for 30 min. After washing with warm DMEM (supplemented with 10% FBS) three times, neurons were suspended in neuron culture media and dissociated by trituration using varying sizes of pipettes. Neurons were then centrifuged, and the pellet was re-suspended in culture media, washed twice with culture media, and plated on the poly-D-lysine-coated plates. Neuron culture was maintained in the 37° C. incubator with 95% O2 and 5% CO2. The morning after culturing, 2/3 of the neuron culture media was replaced with fresh neuron culture media. Media was then replaced every 3-4 days. […]
(§2) Brain tissues or cultured cells were lysed on ice in the lysis buffer and then the solution was centrifuged at 14,000 rpm for 10 min at 4° C. Next, the supernatant was collected and protein concentrations were determined using a BCA protein assay kit (Thermo Scientific, 23227). […] The band density of each protein was quantified by the Bio-Rad Quantity One software and the relative optical density was analyzed relative to the loading control β-actin on the same membrane.

endogenous α-synuclein [1] = molecular target: T1, endogenous α-synuclein (Rattus norvegicus, UniProt P37377); assay: α-synuclein level in MPP+-treated ventral midbrain cultures, immunoblot; type: cell-based; conditions: 25 μM, 48 hrs, MPP+ 20 μM
T1 construct: endogenous in cells; host or cells: primary rat cortical neurons (14 DIV) and primary rat ventral midbrain neurons (3 DIV)
Protocol: as §1, §2

endogenous α-synuclein [2] = molecular target: T2, endogenous α-synuclein (Mus musculus, UniProt O55042); assay: α-synuclein expression in peripheral and brain tissues after peptide injection; type: in vivo; conditions: 6 μmol/kg, i.p., 6 hours after peptide injection
T2 construct: from tissue; host or cells: kidney, spleen, ventral midbrain, striatum

TH-positive neurons = assay: Protection against MPP+ toxicity in ventral midbrain cultures (TH protein, TH-positive neuron counting); type: cell-based, rat; conditions: 25 μM, 48 hrs, MPP+ 20 μM
Protocol: Primary rat neuron cultures were prepared from embryos of pregnant Sprague-Dawley rats (E18). The experimental protocol was approved by the University of British Columbia Animal Care Committee. Briefly, the cortical tissue or ventral midbrain tissue was isolated into ice cold HBSS (Invitrogen, 14170-112) and then digested with 0.25% trypsin-EDTA at 37° C. for 30 min. After washing with warm DMEM (supplemented with 10% FBS) three times, neurons were suspended in neuron culture media and dissociated by trituration using varying sizes of pipettes. […]
Neurons were then washed 6×2 min in PBS, and incubated in Alexa Fluor 488 (Life technologies, A-11034; 1:500 dilution in 3% BSA/PBS) for 45 min at 37° C. without agitation. […] Neurons were then imaged with the Zeiss Axio Observer D1 microscope at 20× and 10 fields of view per coverslip were randomly selected and counted. […]
as §2

endogenous α-synuclein [3] = molecular target: T1, endogenous α-synuclein; assay: Knockdown of endogenous α-synuclein in primary cortical neuron cultures, immunoblot; type: cell-based
Protocol: Primary rat neuron cultures were prepared from embryos of pregnant Sprague-Dawley rats (E18). The experimental protocol was approved by the University of British Columbia Animal Care Committee. Briefly, the cortical tissue or ventral midbrain tissue was isolated into ice cold HBSS (Invitrogen, 14170-112) and then digested with 0.25% trypsin-EDTA at 37° C. for 30 min. After washing with warm DMEM (supplemented with 10% FBS) three times, neurons were suspended in neuron culture media and dissociated by trituration using varying sizes of pipettes. Neurons were then centrifuged, and the pellet was re-suspended in culture media, washed twice with culture media, and plated on the poly-D-lysine-coated plates. Neuron culture was maintained in the 37° C. incubator with […] and 5% CO2. The morning after culturing, 2/3 of the neuron culture media was replaced with fresh neuron culture media. Media was then replaced every 3-4 days. Primary rat cortical neuron culture was used 14 days in vitro (DIV) and primary rat ventral midbrain neuron culture was used 3 DIV.
Tat-βsyn-degron and Tat-βsyn peptides were first dissolved in sterile water as a 25 mM stock solution and then diluted directly in the neurobasal culture media to make the desired working concentration. 20 mM MPP+iodide stock solution was made freshly each time and diluted in the neurobasal culture media directly to make the desired working concentration. For 48 hrs treatment, neuron culture media containing MPP+ and peptides were replaced every 24 hrs.
Brain tissues or cultured cells were lysed on ice in the lysis buffer and then the solution was centrifuged at 14,000 rpm for 10 min at 4° C. Next, the supernatant was collected and protein concentrations were determined using a BCA protein assay kit (Thermo Scientific, 23227). Equal amount of protein samples was mixed with 4× sample buffer, boiled at 100° C. for 5 min, and separated on 10% sodium dodecyl sulphate-polyacrylamide gel electrophoresis (SDS-PAGE). Proteins were then transferred to Immobilon-PTM polyvinylidene fluoride (PVDF) membranes (Bio-Rad, 162-0177). The membranes were blocked with 5% non-fat milk in Tris-buffered saline containing 0.1% Tween-20 (TBST) for 1 hr at room temperature, and then incubated overnight at 4° C. with primary antibody. After washing 3×5 min in TBST, membranes were incubated with horseradish peroxidase-conjugated secondary antibody for 1 hr at room temperature. After another three washes with TBST, protein was visualized in the Bio-Rad Imager using ECL western blotting substrate (Pierce, 32016). The band density of each protein was quantified by the Bio-Rad Quantity One software and the relative optical density was analyzed relative to the loading control β-actin on the same membrane.

YGRKKRRQRRRRTKSGVYLVGRRRG (The sequence is synthesized (YGRKKRRQRRRRTKSGVYLVGRRRG)) [Tat-βsyn-degron]
expression level of HSP90 (HSP90): did not affect the expression levels | endogenous α-synuclein protein levels (endogenous α-synuclein [1]): induced a robust reduction in endogenous α-synuclein protein levels | α-synuclein expression in the kidney (endogenous α-synuclein [2]): significantly reduce the α-synuclein expression | α-synuclein expression in the spleen (endogenous α-synuclein [2]): significantly reduce the α-synuclein expression | α-synuclein expression in the striatum (endogenous α-synuclein [2]): significantly reduce the α-synuclein expression | α-synuclein expression in the ventral midbrain (endogenous α-synuclein [2]): significantly reduce the α-synuclein expression | numbers of TH-positive neurons after MPP+ (TH-positive neurons; blinded counting): almost fully protected dopaminergic neurons | TH protein levels after MPP+ (TH-positive neurons; immunoblot): rescue of TH protein levels | time course of knockdown of endogenous α-synuclein (endogenous α-synuclein [3]; 50 μM bath application, primary cortical cultures): induced a time-dependent knockdown of endogenous α-synuclein | endogenous α-synuclein protein levels (endogenous α-synuclein [3]; bath application 24 hrs, 5-50 μM (control 50 μM), cortical neuron cultures): robust reduction of endogenous α-synuclein protein levels in a dose-dependent manner
